# According to patent US12012446B2, “Epstein-Barr virus antibodies and uses thereof” (priority 2017, dated 2024):
# B1: h72A1: humanized 72A1 IgG1; heavy and light chain SEQ ID NOs: 180 and 181 (antibody, V domains shown)
# VH: EVQLVESGGGLVQPGGSLRLSCAASGSSFTDYTMNWMRQSPGKGLEWIGLINPYNGGTRYADSVKGRATLSLDKSKNTAYLQMNSLRAEDTAIYYCAGGLRRVNWFAYWGQGTLVTVSS
# VL: DAQLTQSPILLSASVGDRVTITCRSSTGAVTTSNYANWVQERTNGSFRGLIGGTNNRVPGVPSRFSGSLSGDDATLTISSLQPEDEADYFCVLWHSNHWVFGAGTKVEIKR
# B2: HB20: murine anti-EBV gp350 mAb, IgG2a κ; SEQ ID NO: 128 / 129; neutralizing (antibody, V domains shown)
# VH: ELVKPGASVKLSCKASGYTFTSYWIQWVKQRPGQGLEWIGEINPTNGHTNYNEKFKTKATLTVDKSSSTAYMRLSSLTSEDSAVYYCARNLYYYGRPDYWGQGTSVTVSSAKTTAPSVYPLAPVCGDTTGSSVTLG
# VL: SSLSASLGDRVTISCRASQDIGNYLNWYQQKPDGTVKLLIYYTSRLHSGVPSRFSGSGSGTDYSLTISNLEQEDIATYFCQQGNALPPTFGGGTKLEIKRADAAPTV
# modifications: heavy chain mAb HB20; light chain mAb HB20
# notes: murine anti-EBV gp350 mAb, IgG2a κ; neutralizing
# What was measured:
# [1] = tested on: EBV-eGFP infection of Raji cells; test: EBV neutralization assay in Raji cells; format: cell-based, Epstein-Barr virus
# Procedure, shortened: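 Purified anti-gp350 mAbs were preincubated 2 h at 37° C with purified AGS-EBV-eGFP, then used to infect 5×10^5 Raji cells for 2 h. After washing, cells were cultured 48 h and eGFP+ cells counted by flow cytometry. % neutralization = (EBV alone − EBV+mAb)/EBV alone × 100; mAbs at 12.5, 25, 50 and 100 μg/ml.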
# [2] = tested on: EBV gp350 20-mer linear peptides (gp350 regions); format: binding, Epstein-Barr virus; details: 10 μg/ml mAb, 10 μg/ml peptide
# Method: Forty-five sequential 20-mer linear peptides, covering the whole sequence of gp350 (GenBank: NC_007605.1), with an exception of aa 862-881, were synthesized using a solid phase method and cleaved using a low-high hydrogen fluoride method by the GenicBio, as previously described (58).
# The binding of anti-gp350 mAbs to 45 synthesized 20-mer sequential peptides covering the total length of gp350 was analyzed using indirect ELISA as described (58). Briefly, immunoplates were coated with 50 μl of 10 μg/ml EBV gp350 peptides (forty-five 20-mers) diluted in PBS and incubated overnight at 4° C.; 0.5 μg/ml recombinant EBV gp350 ectodomain protein was used as a positive control. After washing three times with washing buffer (PBS containing 0.05% (v/v) Tween 20), plates were blocked with 100 μl washing buffer containing 3% BSA (blocking buffer), incubated for 1 hour at room temperature, and washed as above. Ten μg/ml purified mAbs were added to each well in triplicate and incubated for 2 hours at room temperature. […] The plates were washed as described above, followed by incubation with goat anti-mouse IgG or goat anti-human IgG HRP-conjugated secondary antibody (1:2,000 diluted in PBS) at room temperature for 1 hour. The plates were washed again and the chromogenic substrate ABTS was added. The reaction was stopped using ABTS peroxidase stop solution. The absorbance was read at an optical density of 405 nm using an ELISA plate reader.
# The peptide library, consisting of 20-mer peptides, covered the entire gp350 protein, with the exception of AA 862-881 (Table 9).
# Purified recombinant gp350 ectodomain was used as a control to validate the binding activity for all of the antibodies used. The overall gp350 sequence was divided into nine different regions consisting of ˜100 AA (FIG. 7).
# [3] = molecular target: T1, EBV gp350 stably expressed on CHO cells (Epstein-Barr virus, UniProt P03200); test: Epitope mapping by competitive cell binding assay with biotinylated mAbs; details: for antigen binding competition with biotinylated m72A1 (in words) / % inhibition of biotinylated nAbs (biotinylated m72A1): biotinylated m72A1 1 μg/ml; for antigen binding competition with biotinylated m72A1 (in words): unlabeled mAbs 500-67.5 μg/ml
# T1 construct: stably co-transfected with full-length pCAGGS-gp350/220 and pCI-puro vector; expressed in transfected cells; host or cells: CHO cells
# Procedure, shortened: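 CHO cells stably expressing gp350 preincubated 2 h with unlabeled competitor mAbs (500, 250, 125, 67.5 μg/ml), then 2 h with 1 μg/ml biotinylated mAb, detected by anti-biotin AF488 flow cytometry. % inhibition = 100−(% positive cells with competitor/% without)×100; anti-KSHV gH/gL 54A1 as non-specific control.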
# T1 sequence (P03200 whole entry): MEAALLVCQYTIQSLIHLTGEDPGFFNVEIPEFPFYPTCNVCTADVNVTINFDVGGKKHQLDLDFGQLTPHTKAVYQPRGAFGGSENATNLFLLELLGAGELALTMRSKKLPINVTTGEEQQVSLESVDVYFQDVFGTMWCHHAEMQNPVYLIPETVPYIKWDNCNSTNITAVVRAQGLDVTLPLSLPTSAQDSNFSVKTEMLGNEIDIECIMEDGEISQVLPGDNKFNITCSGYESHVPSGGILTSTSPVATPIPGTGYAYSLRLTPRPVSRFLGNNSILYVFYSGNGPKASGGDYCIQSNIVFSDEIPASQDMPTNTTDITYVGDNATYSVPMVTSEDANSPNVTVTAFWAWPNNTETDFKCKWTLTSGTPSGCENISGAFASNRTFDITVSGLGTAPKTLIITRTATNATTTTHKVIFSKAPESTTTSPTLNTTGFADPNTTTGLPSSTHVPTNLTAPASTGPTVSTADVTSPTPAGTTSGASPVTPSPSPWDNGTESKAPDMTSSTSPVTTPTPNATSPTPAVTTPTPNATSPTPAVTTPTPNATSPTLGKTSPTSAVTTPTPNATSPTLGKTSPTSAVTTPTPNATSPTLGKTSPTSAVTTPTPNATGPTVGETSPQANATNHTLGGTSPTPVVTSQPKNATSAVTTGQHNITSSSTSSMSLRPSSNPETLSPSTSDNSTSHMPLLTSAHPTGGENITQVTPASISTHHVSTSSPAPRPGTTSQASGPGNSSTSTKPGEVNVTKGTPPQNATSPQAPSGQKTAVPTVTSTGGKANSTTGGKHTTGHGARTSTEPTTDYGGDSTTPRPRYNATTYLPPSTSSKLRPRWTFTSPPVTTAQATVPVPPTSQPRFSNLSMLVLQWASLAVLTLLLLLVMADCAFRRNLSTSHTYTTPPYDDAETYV
Molecule,"blocking of EBV infection of Raji cells (nAb activity) ([1]; protein G and size-exclusion chromatography-purified mAbs, lowest concentration 12.5 μg/ml)",binding to gp350 region AA 102-201 (linear peptides) [2],"% inhibition of biotinylated 54A1 ([3]; 1 μg/ml biotinylated 54A1, 500 μg/ml unlabeled mAb)","% inhibition of biotinylated HB1 ([3]; 1 μg/ml biotinylated HB1, 500 μg/ml unlabeled mAb)","% inhibition of biotinylated HB5 ([3]; 1 μg/ml biotinylated HB5, 500 μg/ml unlabeled mAb)","% inhibition of biotinylated HB11 ([3]; 1 μg/ml biotinylated HB11, 500 μg/ml unlabeled mAb)","% inhibition of biotinylated HB17 ([3]; 1 μg/ml biotinylated HB17, 500 μg/ml unlabeled mAb)","% inhibition of biotinylated HB20 ([3]; 1 μg/ml biotinylated HB20, 500 μg/ml unlabeled mAb)","% inhibition of biotinylated h72A1 ([3]; 1 μg/ml biotinylated h72A1, 500 μg/ml unlabeled mAb)",antigen binding competition with biotinylated m72A1 (in words) [3],"% inhibition of biotinylated m72A1 ([3]; cross-competition, 1 μg/ml biotinylated m72A1, 500 μg/ml unlabeled mAb)",% inhibition of biotinylated nAbs (biotinylated m72A1) ([3]; unlabeled mAb 67.5 μg/ml),% inhibition of biotinylated nAbs (biotinylated m72A1) ([3]; unlabeled mAb 125 μg/ml),% inhibition of biotinylated nAbs (biotinylated m72A1) ([3]; unlabeled mAb 250 μg/ml),% inhibition of biotinylated nAbs (biotinylated m72A1) ([3]; unlabeled mAb 500 μg/ml),"EBV neutralization, summary statement ([1]; as stated in Example 8)","blocking of EBV infection of Raji cells (in words) ([1]; protein G and size-exclusion chromatography-purified mAbs, 12.5-100 μg/ml)","neutralization of EBV in Raji cells (in words) ([1]; spin-column purified mAbs, 12.5, 25, 50 and 100 μg/ml)",competitive binding versus m72A1 and h72A1 (in words) ([3]; biotinylated antibodies)
B1,98%,bound,0%,87%,97%,79%,31%,26%,98%,Antigen binding competition was observed,98%,89%,93%,95%,98%,,,,
B2,,bound,,,,,,,,Antigen binding competition was observed,,,,,,one of the best nAb,blocked EBV infection in a dose-dependent manner,failed to neutralize EBV infection,only partial binding to the overlapping targets
